Source: patent US20230348603A1 (VERSEAU THERAPEUTICS, published 2023)

T1: Human VSIG4-L-His (human, UniProt Q9Y279 20-283)
T1 construct: long isoform ECD with His tag; also called hVSIG4-L
T1 sequence: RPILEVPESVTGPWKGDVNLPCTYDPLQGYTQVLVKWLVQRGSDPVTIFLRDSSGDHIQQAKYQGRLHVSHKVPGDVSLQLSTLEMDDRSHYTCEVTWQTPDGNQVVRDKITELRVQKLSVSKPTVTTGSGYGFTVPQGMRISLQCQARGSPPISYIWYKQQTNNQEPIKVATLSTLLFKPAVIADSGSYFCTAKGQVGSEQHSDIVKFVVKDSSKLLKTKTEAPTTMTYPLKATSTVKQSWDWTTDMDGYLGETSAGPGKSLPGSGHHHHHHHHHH

T2: Mouse VSIG4-His (mouse)
T2 construct: ECD with His tag; also called mVSIG4
T2 chain: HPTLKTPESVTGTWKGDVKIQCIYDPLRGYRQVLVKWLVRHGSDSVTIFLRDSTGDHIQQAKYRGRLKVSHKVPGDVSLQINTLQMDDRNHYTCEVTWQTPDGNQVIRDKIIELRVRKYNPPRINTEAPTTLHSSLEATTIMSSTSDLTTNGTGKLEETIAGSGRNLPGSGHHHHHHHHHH

T3: Human VSIG4-S-His (human, UniProt Q9Y279 20-283)
T3 construct: short isoform ECD with His tag; also called hVSIG4-S; VISG4-S-His
T3 sequence: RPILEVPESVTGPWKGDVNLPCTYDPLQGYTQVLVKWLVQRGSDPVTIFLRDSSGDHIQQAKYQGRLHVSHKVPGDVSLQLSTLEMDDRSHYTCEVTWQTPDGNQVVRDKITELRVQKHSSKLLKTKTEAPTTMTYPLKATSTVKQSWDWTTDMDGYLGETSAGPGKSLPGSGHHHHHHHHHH

T4: Human VSIG4-L-CHO (human VSIG4 long isoform on CHO-K1 cells) (human, UniProt Q9Y279 20-399)
T4 construct: also called hVSIG4-L (flow cytometry)
T4 sequence: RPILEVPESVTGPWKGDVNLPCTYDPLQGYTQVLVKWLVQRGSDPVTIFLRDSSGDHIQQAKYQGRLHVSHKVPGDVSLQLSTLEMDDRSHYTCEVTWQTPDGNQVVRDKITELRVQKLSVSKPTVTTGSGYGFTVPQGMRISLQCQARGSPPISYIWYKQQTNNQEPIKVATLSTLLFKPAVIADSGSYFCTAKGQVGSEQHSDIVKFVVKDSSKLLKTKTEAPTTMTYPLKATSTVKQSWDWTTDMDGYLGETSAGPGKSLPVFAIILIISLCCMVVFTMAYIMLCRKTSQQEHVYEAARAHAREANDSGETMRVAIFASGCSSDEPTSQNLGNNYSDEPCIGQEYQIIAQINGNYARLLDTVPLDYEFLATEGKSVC

T5: Cynomolgus Monkey VSIG4-L-His (cynomolgus monkey)
T5 construct: ECD with His tag; also called cyVSIG4-L; cyno VSIG4-L-His
T5 chain: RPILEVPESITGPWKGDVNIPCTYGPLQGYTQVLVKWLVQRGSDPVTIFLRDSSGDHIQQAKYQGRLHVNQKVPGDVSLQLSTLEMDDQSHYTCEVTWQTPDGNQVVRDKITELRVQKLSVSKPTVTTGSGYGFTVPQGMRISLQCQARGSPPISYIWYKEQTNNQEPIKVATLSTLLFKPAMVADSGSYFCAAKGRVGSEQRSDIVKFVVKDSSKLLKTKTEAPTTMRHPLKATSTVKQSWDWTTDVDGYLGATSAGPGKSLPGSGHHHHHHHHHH


Columns and labels:
Human VSIG4-L-His [1] = biological target: T1, Human VSIG4-L-His; test: SPR (FJB)
Human VSIG4-L-Fc [2] = biological target: T6, Human VSIG4-L-Fc (human); test: ELISA, IgG 50 nM on coated antigen;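 further: Mouse-human chimeric IgG4 antibodies incubated 1 h on plate-coated VSIG4 proteins, bound IgG detected with HRP-labelled anti-human IgG, irrelevant antibody and protein as specificity controls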
T6 construct: also called hVSIG4-L-Fc; hVSIG4-L
Target sequence in this assay (chain, as listed by the source limits assumed): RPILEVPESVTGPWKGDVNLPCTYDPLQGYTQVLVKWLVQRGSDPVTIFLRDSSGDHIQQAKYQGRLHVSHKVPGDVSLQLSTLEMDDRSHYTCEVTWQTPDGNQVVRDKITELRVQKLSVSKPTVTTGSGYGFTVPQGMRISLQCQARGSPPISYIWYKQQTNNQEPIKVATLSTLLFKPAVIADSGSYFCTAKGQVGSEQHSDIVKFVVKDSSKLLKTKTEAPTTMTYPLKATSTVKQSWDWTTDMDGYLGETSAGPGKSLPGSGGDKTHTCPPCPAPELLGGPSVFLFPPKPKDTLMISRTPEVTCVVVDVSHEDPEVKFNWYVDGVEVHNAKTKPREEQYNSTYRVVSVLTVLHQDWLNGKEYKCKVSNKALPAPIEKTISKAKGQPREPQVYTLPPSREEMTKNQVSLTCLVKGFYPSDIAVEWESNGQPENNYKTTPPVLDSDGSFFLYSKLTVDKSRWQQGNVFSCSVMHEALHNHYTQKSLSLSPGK
Method: (§1) The binding characteristics of selected antibodies identified in the phage display selections and reformatted as mouse-human chimeric IgG4 antibodies was assessed by ELISA for their ability to bind plate-bound human VSIG4-L, human VSIG4-S, cynomolgus monkey VSIG4, and mouse VSIG4 (Table 7). Antibodies were also assessed by ELISA for specificity to human VSIG4 compared to related VSIG4 B7 family members, including human B7-H1, B7-H2, B7-H3, B7-H4, B7-DC, B7-1, and B7-2 (Table 8).
(§2) Coated microplates were blocked with dried skimmed milk at 4% in PBS. Coated proteins were then incubated with each purified antibody at a concentration of 50 nM for 1 h to allow the binding to the proteins. Binding detection was measured using a goat anti-huIgG monoclonal detection antibody, HRP conjugated (Jackson Immune Research, West Gove, PA). As a control for specificity, an irrelevant antibody and protein were used. OD at 450 nm was determined using a standard absorbance microplate reader.

Human VSIG4-S-Fc [3] = biological target: T7, Human VSIG4-S-Fc (human); test: ELISA, IgG 50 nM on coated antigen;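 further: Mouse-human chimeric IgG4 antibodies incubated 1 h on plate-coated VSIG4 proteins, bound IgG detected with HRP-labelled anti-human IgG, irrelevant antibody and protein as specificity controls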
T7 construct: short isoform ECD fused to human Fc1; also called hVSIG4-S
Method: as §1, §2

Mouse VSIG4-His = biological target: T2, Mouse VSIG4-His; test: ELISA, IgG 50 nM on coated antigen;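 further: Mouse-human chimeric IgG4 antibodies incubated 1 h on plate-coated VSIG4 proteins, bound IgG detected with HRP-labelled anti-human IgG, irrelevant antibody and protein as specificity controls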
Method: as §1, §2

Human VSIG4-L-His [4] = biological target: T1, Human VSIG4-L-His; test: BLI (Octet), IgG on AHC sensor, antigen 100 nM
Method: (§3) The binding affinity of chimeric antibodies was determined by biolayer interferometry (BLI), using a ForteBio Octet® Red384 system. […] Biosensors were rehydrated prior to the assay in kinetics buffer for 10 minutes and then equilibrated in kinetics buffer for 60 seconds. Antibody was then immobilized for 300 seconds followed by a 120 second baseline wash in fresh kinetics buffer, 300 second analyte association, and 300 second dissociation in the same buffer wells as the baseline wash step. All assay steps occurred at 30° C. with an acquisition rate of 5.0 Hz
(§4) Processing parameters included double reference subtraction, with human IgG4 used as an isotype control for reference sensor subtraction and immobilized ligand in kinetics buffer with no analyte used for reference sample subtraction. Y-axis data was aligned to the average baseline step for the last 5 seconds and all steps were inter-step corrected to the start of the dissociation step. High frequency noise was removed using Savitzky-Golay filtering and final fitting was a 1:1 global binding model to both association and dissociation.

Human VSIG4-S-His = biological target: T3, Human VSIG4-S-His; test: BLI (Octet), IgG on AHC sensor, antigen 100 nM
Method: as §3, §4

[5] = biological target: T4, Human VSIG4-L-CHO (human VSIG4 long …); test: flow cytometry, CHO-K1 cells expressing hVSIG4-L
Method: Three-fold serial dilution of each antibody starting at 200 nM were prepared in assay buffer (0.5% of heat inactivated Fetal bovine serum with 1:1000 Ethylenediaminetetraacetic acid in PBS). […] As a control for specificity, an irrelevant antibody was used. Binding detection was assessed using a goat anti-Human IgG (Fc specific), FITC conjugated polyclonal detection antibody (Sigma Aldrich, St. Louis, MO) and by acquisition of 10,000 cells per sample. Fluorescence was measured on an Attune™ NxT (Thermo Fisher Scientific, Waltham, MA).

Human VSIG4-L-Fc [6] = biological target: T6, Human VSIG4-L-Fc; test: BLI binning on hVSIG4-L-Fc, competitor 12A08 first;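 further: normalized to binding of second antibody without first competitor antibody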
Method: (§5) Epitopic diversity of functional antibodies was further assessed by antibody cross-blocking experiments, performed on a ForteBio Octet® Red384 system. […] All assay steps occurred at 30° C. with an acquisition rate of 5.0 Hz.
(§6) Binning results were calculated using ForteBio Data Analysis HT software. Antibody “a” and antibody “b” steps were defined, and the maximum binding calculation was averaged at the last 10% of the step duration. Once the matrix was generated, the antibody “b” binding signal in the absence of any antibody “a” was used to normalize the maximum binding of the competitor antibodies. Hierarchical clustering was set with a similarity metric of Pearson and Lingang Criteria by Mean, and the normalized maximum binding nm shift is reported in Table 9 below.

Human VSIG4-L-Fc [7] = biological target: T6, Human VSIG4-L-Fc; test: BLI binning on hVSIG4-L-Fc, competitor 12A12 first;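 further: normalized to binding of second antibody without first competitor antibody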
Human VSIG4-L-Fc [8] = biological target: T6, Human VSIG4-L-Fc; test: BLI binning on hVSIG4-L-Fc, competitor 13H11 first;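 further: normalized to binding of second antibody without first competitor antibody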
Method: as §5, §6

Human VSIG4-L-Fc [9] = biological target: T6, Human VSIG4-L-Fc; test: BLI binning on hVSIG4-L-Fc, competitor 14C05 first;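 further: normalized to binding of second antibody without first competitor antibody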
Human VSIG4-L-Fc [10] = biological target: T6, Human VSIG4-L-Fc; test: BLI binning on hVSIG4-L-Fc, competitor 14D12 first;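 further: normalized to binding of second antibody without first competitor antibody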
Method: as §5, §6

Human VSIG4-L-Fc [11] = biological target: T6, Human VSIG4-L-Fc; test: BLI binning on hVSIG4-L-Fc, competitor 15A06 first;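 further: normalized to binding of second antibody without first competitor antibody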
Method: as §5, §6

Human VSIG4-L-Fc [12] = biological target: T6, Human VSIG4-L-Fc; test: BLI binning on hVSIG4-L-Fc, competitor 15C03 first;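 further: normalized to binding of second antibody without first competitor antibody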
Human VSIG4-L-Fc [13] = biological target: T6, Human VSIG4-L-Fc; test: BLI binning on hVSIG4-L-Fc, competitor 15C04 first;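 further: normalized to binding of second antibody without first competitor antibody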
Human VSIG4-L-Fc [14] = biological target: T6, Human VSIG4-L-Fc; test: BLI binning on hVSIG4-L-Fc, competitor 16E03 first;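 further: normalized to binding of second antibody without first competitor antibody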
Method: as §5, §6

Human VSIG4-L-Fc [15] = biological target: T6, Human VSIG4-L-Fc; test: BLI binning on hVSIG4-L-Fc, competitor 16E10 first;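 further: normalized to binding of second antibody without first competitor antibody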
[16] = biological target: T4, Human VSIG4-L-CHO (human VSIG4 long …); test: flow cytometry (FJB), 200 nM mAb, huVSIG4-L CHO-K1 cells
Human VSIG4-L-Fc [17] = biological target: T6, Human VSIG4-L-Fc; test: ligand competition ELISA (FJB), blocked ligand C3b, 200 nM mAb
Human VSIG4-L-Fc [18] = biological target: T6, Human VSIG4-L-Fc; test: ligand competition ELISA (FJB), blocked ligand iC3b, 200 nM mAb
[19] = biological target: T4, Human VSIG4-L-CHO (human VSIG4 long …); test: flow cytometry (FJB), 200 nM mAb, huVSIG4-L CHO-K1 over parental CHO-K1
[20] = biological target: T5, Cynomolgus Monkey VSIG4-L-His; test: ELISA, IgG 50 nM on coated antigen; ELISA, bivalent IgG on plate-coated cyVSIG4-L (avid format)
Method: as §2

Human VSIG4-L-Fc [21] = biological target: T6, Human VSIG4-L-Fc; test: ligand blocking of C3b, IgG
Human VSIG4-L-Fc [22] = biological target: T6, Human VSIG4-L-Fc; test: ligand blocking of iC3b, IgG
Human VSIG4-L-Fc [23] = biological target: T6, Human VSIG4-L-Fc; test: ligand competition ELISA (FJB), blocked ligand C3b
Human VSIG4-L-Fc [24] = biological target: T6, Human VSIG4-L-Fc; test: ligand competition ELISA (FJB), blocked ligand iC3b
Human VSIG4-L-Fc [25] = biological target: T6, Human VSIG4-L-Fc; test: ELISA, Fab P.E. 1:5 on coated antigen;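 further: mouse Fab P.E. samples in 1% skimmed milk PBS, bound to antigen-coated wells for 1 h at room temperature, read as absorbance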
Method: (§7) Coated microplates were blocked with dried skimmed milk at 4% in PBS. P.E. samples of the mouse unique Fab sequences were diluted 1:5 in assay buffer (1% dried skimmed milk in PBS), and 100 μl of diluted sample was added onto the coated wells and incubated for one hour at room temperature. […] Optical density (OD) at 450 nm was determined using a standard absorbance microplate reader.

Human VSIG4-S-Fc [26] = biological target: T7, Human VSIG4-S-Fc; test: ELISA, Fab P.E. 1:5 on coated antigen;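 further: mouse Fab P.E. samples in 1% skimmed milk PBS, bound to antigen-coated wells for 1 h at room temperature, read as absorbance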
Method: as §7

[27] = biological target: T5, Cynomolgus Monkey VSIG4-L-His; test: ELISA, Fab P.E. 1:5 on coated antigen;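 further: mouse Fab P.E. samples in 1% skimmed milk PBS, bound to antigen-coated wells for 1 h at room temperature, read as absorbance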
Method: as §7

Human VSIG4-L-Fc [28] = biological target: T6, Human VSIG4-L-Fc; test: blocking ELISA, biotin-C3b on coated hVSIG4-L-Fc
Method: (§8) Coated microplates were blocked with casein (Sigma-Aldrich, St. Louis, MO) at 1% in PBS. […] One hundred ill of the mixed sample was added onto the coated wells and incubated for one hour at room temperature. […] OD at 450 nm was determined using a standard absorbance microplate reader.

Human VSIG4-L-Fc [29] = biological target: T6, Human VSIG4-L-Fc; test: blocking ELISA, biotin-iC3b on coated hVSIG4-L-Fc
Method: as §8

Human VSIG4-L-His [30] = biological target: T1, Human VSIG4-L-His; test: SPR (Biacore T200), Fab P.E. 1:5 over immobilised antigen
Method: Off-rate values of the mouse unique Fab clones were determined using surface plasmon resonance (SPR) in Biacore™ T200 equipment (GE Healthcare, Chicago, IL). […] The immobilization was performed in accordance with a method provided by Biacore and by using the NHS/EDC kit (GE Healthcare, Chicago, IL). […] Sixty μl of Fab P.E. samples, diluted 1:5 in HBS-EP+ assay buffer (0.1 M HEPES, 1.5 M NaCl, 0.03 M EDTA and 0.5% v/v Surfactant P20), were injected and passed through the flow cells at a flow rate of 30 μl/min. After binding of the samples to VSIG4 protein, the off-rate was monitored for a period of five minutes. The flow cell surface was regenerated by a double injection of 10 μl of 1 mM glycine at pH 1.5 in 1 M sodium chloride at 30 μl/min. Off-rate analysis was done using the BIAevaluation software (GE Healthcare, Chicago, IL) and using a 1:1 dissociation kinetic fit curve.

T7 sequence (chain, as listed by the source limits assumed): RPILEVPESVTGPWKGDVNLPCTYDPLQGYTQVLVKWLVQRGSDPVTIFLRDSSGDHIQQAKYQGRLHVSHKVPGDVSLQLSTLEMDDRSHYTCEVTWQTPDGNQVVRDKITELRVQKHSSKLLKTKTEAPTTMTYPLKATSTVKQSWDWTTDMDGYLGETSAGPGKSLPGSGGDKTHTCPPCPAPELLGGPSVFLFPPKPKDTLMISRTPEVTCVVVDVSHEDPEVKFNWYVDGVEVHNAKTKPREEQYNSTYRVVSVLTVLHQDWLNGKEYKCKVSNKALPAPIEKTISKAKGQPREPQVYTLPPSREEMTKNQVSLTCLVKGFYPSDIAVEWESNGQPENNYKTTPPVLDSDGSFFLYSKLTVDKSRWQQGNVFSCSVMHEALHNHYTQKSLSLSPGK

Row | Kd (Human VSIG4-L-His [1]) | ELISA OD450 (Human VSIG4-L-Fc [2]) | ELISA OD450 (Human VSIG4-S-Fc [3]) | ELISA OD450 (Mouse VSIG4-His) | Kd (Human VSIG4-L-His [4]) | Kd (Human VSIG4-S-His) | EC50 [5] | normalized maximum binding nm shift (Human VSIG4-L-Fc [6]) | normalized maximum binding nm shift (Human VSIG4-L-Fc [7]) | normalized maximum binding nm shift (Human VSIG4-L-Fc [8]) | normalized maximum binding nm shift (Human VSIG4-L-Fc [9]) | normalized maximum binding nm shift (Human VSIG4-L-Fc [10]) | normalized maximum binding nm shift (Human VSIG4-L-Fc [11]) | normalized maximum binding nm shift (Human VSIG4-L-Fc [12]) | normalized maximum binding nm shift (Human VSIG4-L-Fc [13]) | normalized maximum binding nm shift (Human VSIG4-L-Fc [14]) | normalized maximum binding nm shift (Human VSIG4-L-Fc [15]) | Binding (200 nM) MFI [16] | Binding (200 nM) Fold-Over-Parental [19] | ELISA OD450 [20] | Binder | other results
1 | 29.7 nM | 4.5 OD450 | 4.13 OD450 | 0.054 OD450 | 49.3 nM | 49.3 nM | 1 nM | 0.13 normalized | 0.9 normalized | 0.76 normalized | 0.78 normalized | 0.79 normalized | 0.83 normalized | 0.1 normalized | 0.86 normalized | 0.04 normalized | 0.37 normalized | 30400 MFI | 23 fold | 4.36 OD450 | 16E03 mouse/human chimeric IgG4 (S228P) kappa (antibody, V domains shown) VH: QVQLQQSGAELARPGASVKMSCKASGYTFTSYTMHWIKQRPGQGLEWIGYINPSSGHTYYNQKFKDKATLTPDKSSSTAYMQLTSLTSEDSAVYYCARRIPTAYAMDYWGQGTSVTVSS VL: EIQMTQSHKFMSTSVGDRVSITCKASQDVGTAVAWYQQKPGQSPKLLIYWASTRHTGVPDRFTGSGSGTDFTLTISNVQSEDLADYFCQQYSSYPLTFGAGTKLELKR | % Block C3b (200 nM mAb) (Human VSIG4-L-Fc [17]): -192%; % Block iC3b (200 nM mAb) (Human VSIG4-L-Fc [18]): -3%
2 | 17.9 nM | 4.4 OD450 | 3.64 OD450 | 0.057 OD450 | 32.1 nM | 18.6 nM | 2.3 nM | 0.8 normalized | 0.76 normalized | 0.74 normalized | 0.44 normalized | 0.41 normalized | 0.82 normalized | 0.15 normalized | 0.89 normalized | 0.13 normalized | 0.93 normalized | 48900 MFI | 83 fold | 4.5 OD450 | 15C03 mouse/human chimeric IgG4 (S228P) kappa (antibody, V domains shown) VH: EVKLLESGPGLVKPSQSLSLTCTVTGYSITSDYAWNWIRQFPGNKLEWMGYISYSGSTRYNPSLKSRISITRDTSNNQFFLQLNSVTTEDTATYYCARSGYAAMDYWGQGTSVTVSS VL: ENVLTQSPAIMSASPGEKVTMTCRASSSVSSSYLHWYQQKSGASPKLWIYSTSNLASGVPARFSGSGSGTSYSLTISSVEAEDAATYYCQQYSGYPLTFGSGTKLEIKR | Percent Blocking C3b (Human VSIG4-L-Fc [21]): 90%; Percent Blocking iC3b (Human VSIG4-L-Fc [22]): 90%; IC50 (Human VSIG4-L-Fc [23]): 2.4 nM; IC50 (Human VSIG4-L-Fc [24]): 12.8 nM
3 | – | – | – | – | – | – | – | – | – | – | – | – | – | – | – | – | – | – | – | – | 16E10 mouse Fab (periplasmic extract) (Fab, V domains shown, mouse Fab with C-terminal His6-c-myc tag) VH: QVQLQQSGAELVRPGTSVKISCKASGYTFTNYWLGWVKQRPGHGLEWIGDIYPGGGYTNYNEKFKGKATLTADTSSSTAYMQLSSLTSEDSAVYFCAKFYYYGSSYYFDSWGQGTTLTVSS VL: DIVLTQSPSSLSVSAGEKVTLSCKSSQSLLNSGNQENYLAWYQQKPGQPPKLLIYGASTRESGVPDRFTGSGSGTDFTLTISSVQAEDLAVYYCQNDHSYPLTFGAGTKLELK | ELISA OD450 (Human VSIG4-L-Fc [25]): 1.86 OD450; ELISA OD450 (Human VSIG4-S-Fc [26]): 1.32 OD450; ELISA OD450 [27]: 1.88 OD450; Percent Blocking C3b (Human VSIG4-L-Fc [28]): 7.1%; Percent Blocking iC3b (Human VSIG4-L-Fc [29]): 7.6%; koff (Human VSIG4-L-His [30]): 0.025 s⁻¹
